Results reported in PMC10857128.

What was measured:
[1] = molecular target: peppermint leaf-type ferredoxin NADP+ reductase (L-FNR) (Mentha × piperita (peppermint))
[2] = molecular target: peppermint root-type ferredoxin NADP+ reductase (R-FNR) (Mentha × piperita (peppermint))
[3] = molecular target: peppermint root-type ferredoxin NADP+ reductase (R-FNR) (Mentha × piperita (peppermint)); remark: listed apart in the source

Row | Substance | Km^Fd, FNR–Fd-dependent cytochrome c reduction (NADPH-dependent cytochrome c reductase assay, Fd varied 0.3-20 µM, 30 °C, 50 mM Tris pH 7.5) [1] [µM] | kcat, FNR–Fd-dependent cytochrome c reduction (NADPH-dependent cytochrome c reductase assay, Fd varied 0.3-20 µM, 30 °C, 50 mM Tris pH 7.5) [1] [s^−1] | kcat/Km^Fd, FNR–Fd-dependent cytochrome c reduction (NADPH-dependent cytochrome c reductase assay, Fd varied 0.3-20 µM, 30 °C, 50 mM Tris pH 7.5) [1] [µM^−1s^−1] | Km^Fd, FNR–Fd-dependent cytochrome c reduction (NADPH-dependent cytochrome c reductase assay, Fd varied 0.3-20 µM, 30 °C, 50 mM Tris pH 7.5) [2] [µM] | kcat, FNR–Fd-dependent cytochrome c reduction (NADPH-dependent cytochrome c reductase assay, Fd varied 0.3-20 µM, 30 °C, 50 mM Tris pH 7.5) [2] [s^−1] | kcat/Km^Fd, FNR–Fd-dependent cytochrome c reduction (NADPH-dependent cytochrome c reductase assay, Fd varied 0.3-20 µM, 30 °C, 50 mM Tris pH 7.5) [2] [µM^−1s^−1] | Km value for Fd III as told in the text, NADPH-dependent cytochrome c reductase assay (differs from the cell of Table 2) [3] [µM]
1 | peppermint leaf-type ferredoxin (Fd I) (natural protein) | 2.3 | 125 | 54.2 | 3.6 | 281 | 78.3 | 
2 | peppermint root-type ferredoxin (Fd II) (natural protein) | 2.8 | 304 | 109 | 1.9 | 428 | 222 | 
3 | peppermint root-type ferredoxin (Fd III) (natural protein) | 2.9 | 286 | 98.1 | 2.3 | 428 | 189 | 2.1
